Laboratory results from patent US20200306385A1 (ADC THERAPEUTICS S A, published 2020).

Biological target: CD22 (human, UniProt P20273 20-847)
Assay: cell-based or functional assay

B1: Epratuzumab-A (antibody, V domains shown)
VH: QVQLVQSGAEVKKPGSSVKVSCKASGYTFTSYWLHWVRQAPGQGLEWIGYINPRNDYTEYNQNFKDKATITADESTNTAYMELSSLRSEDTAFYFCARRDITTFYWGQG
VL: DIQLTQSPSSLSASVGDRVTMSCKSSQSVLYSANHKNYLAWYQQKPGKAPKLLIYWASTRESGVPSRFSGSGSGTDFTFTISSLQPEDIATYYCHQYLSSWTFGQG
modifications: PBD dimer drug-linker A (SG3246) conjugated to thiols of TCEP-reduced cysteine disulfide bridges; DAR 2.03; which cysteines are modified is not stated
In the case of B1, the “EC50 (µg/mL), in vitro cytotoxicity (cell survival, Alamar Blue, 4 days) on CD22+ve Daudi cells” value is reported as 0.0136 µg/mL, the “EC50 (µg/mL), in vitro cytotoxicity (cell survival, Alamar Blue, 4 days) on CD22+ve Ramos cells” value is reported as 0.0332 µg/mL and the “EC50 (µg/mL), in vitro cytotoxicity (cell survival, Alamar Blue, 4 days) on CD22+ve WSU-DLCL2 cells” value is reported as 0.0243 µg/mL.
